Data reported in paper PMC3580387.

Target: mCherry-Actin (UniProt P60709)
Assay: FRET or BRET

mean E% (FRET efficiency), Case 1 ROIs | mean E% (FRET efficiency), Case 2 ROIs | mean E% (FRET efficiency), Case 3 ROIs | mean E% (FRET efficiency), Case 4 ROIs | Substance
29.6% | 25.4% | 39.3% | – | Venus-IQGAP1 (Venus fused to human IQGAP1) (from UniProt P46940 1-1657) (natural protein)
20.3% | 27.9% | – | 25.2% | TFP-N-WASP (Teal fluorescent protein fused to human N-WASP) (from UniProt O00401 1-505) (natural protein)
